Our source for the Kd and ratio of pulldown, lit-state mutant against dark-state mutant values is article PMC5437309.

What is called Kd is the free concentration of one partner at which half of the binding sites on the other are occupied at equilibrium, for simple one-to-one binding.

The target in one test is JNK (Homo sapiens) (UniProt P45983). To be noted: cited from earlier work.
The target of the next test is GST-JNK1α1 (UniProt P45983). Briefly: pull-down; GST-JNK isoform (2 μg) or unfused GST on glutathione beads, rotated 1 h at +4 °C with cleared 293T lysate holding the luciferase fusion (7,000 units), low-salt buffer with 0.5% Igepal, washed three times; luciferase on beads as per cent of input.

As for JIP peptide (from UniProt Q9UQF2), the Kd with JNK (Homo sapiens) is 800 nM.
As for “luciferase-fused OptoJNKi.lsm (AsLOV2Jα I539E-JIP11) (from UniProt Q9UQF2 157-167) (designed binder)”, the ratio of pulldown, lit-state mutant against dark-state mutant with GST-JNK1α1 is 30 fold.
